Measured values as given in publication PMC4769167 (eLife, 2016).

Key:
[1] = target: the molecule itself; test: cross-linking; inter-subunit disulfide between introduced cysteines, spontaneous (purified without reductant) or induced with copper-phenanthroline (CuP) for 1 h at room temperature, 0.2 mg/mL protein in Buffer A (150 mM NaCl, 10 mM HEPES pH 7.5, 5 mM DM); non-reducing SDS-PAGE, Coomassie, monomer and dimer bands quantified
[2] = target: the molecule itself; test: SEC; Superdex 200 gel filtration, before and after treatment with CuP

Protein | binding result [1] | stoichiometry N [2]
D417C/A404L ClC-ec1 (cysteine-less background) (natural protein, E. coli, ClC-ec1; D417C with A404L in the cysteine-less background C85A/C302A/C347S; source: expressed and purified as in Accardi and Miller, 2004, final step Superdex 200 size exclusion) MKTDTPSLETPQAARLRRRQLIRQLLERDKTPLAILFMAAVVGTLVGLAAVAFDKGVAWLQNQRMGALVHTADNYPLLLTVAFLASAVLAMFGYFLVRKYAPEAGGSGIPEIEGALEDQRPVRWWRVLPVKFFGGLGTLGGGMVLGREGPTVQIGGNIGRMVLDIFRLKGDEARHTLLATGAAAGLAAAFNAPLAGILFIIEEMRPQFRYTLISIKAVFIGVIMSTIMYRIFNHEVALIDVGKLSDAPLNTLWLYLILGIIFGIFGPIFNKWVLGMQDLLHRVHGGNITKWVLMGGAIGGLAGLLGFVAPATSGGGFNLIPIATAGNFSMGMLVFIFVARVITTLLSFSSGAPGGIFAPMLALGTVLGTAFGMVAVELFPQYHLEAGTFAIAGMGALLAASIRLPLTGIILVLEMTCNYQLILPMIITGLGATLLAQFTGGKPLYSAILARTLAKQEAEQLARSK | binds | –
D417C ClC-ec1 (cysteine-less C85A/C302A/C347S background, called the "WT background") (natural protein, E. coli, ClC-ec1, prokaryotic CLC Cl-/H+ exchange transporter, homodimer; D417C in the cysteine-less background C85A/C302A/C347S; E. coli is named only in the keywords; also called D417C/WT; source: expressed and purified as in Accardi and Miller, 2004, final step Superdex 200 size exclusion) MKTDTPSLETPQAARLRRRQLIRQLLERDKTPLAILFMAAVVGTLVGLAAVAFDKGVAWLQNQRMGALVHTADNYPLLLTVAFLASAVLAMFGYFLVRKYAPEAGGSGIPEIEGALEDQRPVRWWRVLPVKFFGGLGTLGGGMVLGREGPTVQIGGNIGRMVLDIFRLKGDEARHTLLATGAAAGLAAAFNAPLAGILFIIEEMRPQFRYTLISIKAVFIGVIMSTIMYRIFNHEVALIDVGKLSDAPLNTLWLYLILGIIFGIFGPIFNKWVLGMQDLLHRVHGGNITKWVLMGGAIGGLAGLLGFVAPATSGGGFNLIPIATAGNFSMGMLVFIFVARVITTLLSFSSGAPGGIFAPMLALGTVLGTAFGMVAVELFPQYHLEAGTFAIAGMGALLAASIRAPLTGIILVLEMTCNYQLILPMIITGLGATLLAQFTGGKPLYSAILARTLAKQEAEQLARSK | – | 2
D417C/F357A ClC-ec1 (cysteine-less background) (natural protein, E. coli, ClC-ec1; D417C with the Helix-N mutation F357A in the cysteine-less background C85A/C302A/C347S; also called F357A (Helix N); source: expressed and purified as in Accardi and Miller, 2004, final step Superdex 200 size exclusion) MKTDTPSLETPQAARLRRRQLIRQLLERDKTPLAILFMAAVVGTLVGLAAVAFDKGVAWLQNQRMGALVHTADNYPLLLTVAFLASAVLAMFGYFLVRKYAPEAGGSGIPEIEGALEDQRPVRWWRVLPVKFFGGLGTLGGGMVLGREGPTVQIGGNIGRMVLDIFRLKGDEARHTLLATGAAAGLAAAFNAPLAGILFIIEEMRPQFRYTLISIKAVFIGVIMSTIMYRIFNHEVALIDVGKLSDAPLNTLWLYLILGIIFGIFGPIFNKWVLGMQDLLHRVHGGNITKWVLMGGAIGGLAGLLGFVAPATSGGGFNLIPIATAGNFSMGMLVFIFVARVITTLLSFSSGAPGGIAAPMLALGTVLGTAFGMVAVELFPQYHLEAGTFAIAGMGALLAASIRAPLTGIILVLEMTCNYQLILPMIITGLGATLLAQFTGGKPLYSAILARTLAKQEAEQLARSK | binds | –
D417C/L361A ClC-ec1 (cysteine-less background) (natural protein, E. coli, ClC-ec1; D417C with the Helix-N mutation L361A in the cysteine-less background C85A/C302A/C347S; also called L361A (Helix N); source: expressed and purified as in Accardi and Miller, 2004, final step Superdex 200 size exclusion) MKTDTPSLETPQAARLRRRQLIRQLLERDKTPLAILFMAAVVGTLVGLAAVAFDKGVAWLQNQRMGALVHTADNYPLLLTVAFLASAVLAMFGYFLVRKYAPEAGGSGIPEIEGALEDQRPVRWWRVLPVKFFGGLGTLGGGMVLGREGPTVQIGGNIGRMVLDIFRLKGDEARHTLLATGAAAGLAAAFNAPLAGILFIIEEMRPQFRYTLISIKAVFIGVIMSTIMYRIFNHEVALIDVGKLSDAPLNTLWLYLILGIIFGIFGPIFNKWVLGMQDLLHRVHGGNITKWVLMGGAIGGLAGLLGFVAPATSGGGFNLIPIATAGNFSMGMLVFIFVARVITTLLSFSSGAPGGIFAPMAALGTVLGTAFGMVAVELFPQYHLEAGTFAIAGMGALLAASIRAPLTGIILVLEMTCNYQLILPMIITGLGATLLAQFTGGKPLYSAILARTLAKQEAEQLARSK | binds | –
D417C/E148A ClC-ec1 (cysteine-less background) (natural protein, E. coli, ClC-ec1; D417C with E148A in the cysteine-less background C85A/C302A/C347S; also called D417C in the E148A mutant background; source: expressed and purified as in Accardi and Miller, 2004, final step Superdex 200 size exclusion) MKTDTPSLETPQAARLRRRQLIRQLLERDKTPLAILFMAAVVGTLVGLAAVAFDKGVAWLQNQRMGALVHTADNYPLLLTVAFLASAVLAMFGYFLVRKYAPEAGGSGIPEIEGALEDQRPVRWWRVLPVKFFGGLGTLGGGMVLGRAGPTVQIGGNIGRMVLDIFRLKGDEARHTLLATGAAAGLAAAFNAPLAGILFIIEEMRPQFRYTLISIKAVFIGVIMSTIMYRIFNHEVALIDVGKLSDAPLNTLWLYLILGIIFGIFGPIFNKWVLGMQDLLHRVHGGNITKWVLMGGAIGGLAGLLGFVAPATSGGGFNLIPIATAGNFSMGMLVFIFVARVITTLLSFSSGAPGGIFAPMLALGTVLGTAFGMVAVELFPQYHLEAGTFAIAGMGALLAASIRAPLTGIILVLEMTCNYQLILPMIITGLGATLLAQFTGGKPLYSAILARTLAKQEAEQLARSK | binds | –
Y419C ClC-ec1 (WT ClC-ec1 background) (natural protein, E. coli, ClC-ec1, prokaryotic CLC Cl-/H+ exchange transporter, homodimer; Y419C in the WT (native cysteines kept) background; source: expressed and purified as in Accardi and Miller, 2004, final step Superdex 200 size exclusion) MKTDTPSLETPQAARLRRRQLIRQLLERDKTPLAILFMAAVVGTLVGLAAVAFDKGVAWLQNQRMGALVHTADNYPLLLTVAFLCSAVLAMFGYFLVRKYAPEAGGSGIPEIEGALEDQRPVRWWRVLPVKFFGGLGTLGGGMVLGREGPTVQIGGNIGRMVLDIFRLKGDEARHTLLATGAAAGLAAAFNAPLAGILFIIEEMRPQFRYTLISIKAVFIGVIMSTIMYRIFNHEVALIDVGKLSDAPLNTLWLYLILGIIFGIFGPIFNKWVLGMQDLLHRVHGGNITKWVLMGGAIGGLCGLLGFVAPATSGGGFNLIPIATAGNFSMGMLVFIFVARVITTLLCFSSGAPGGIFAPMLALGTVLGTAFGMVAVELFPQYHLEAGTFAIAGMGALLAASIRAPLTGIILVLEMTDNCQLILPMIITGLGATLLAQFTGGKPLYSAILARTLAKQEAEQLARSK | binds | –
